# According to doi:10.1101/2020.09.19.304535:
# Target: GmPUB13(252-630), purified protein (soybean (Glycine max))
# Assay: ITC
substance,measurement,value
"Avr1d, purified protein (ITC and gel filtration) (natural protein)",Kd,89 nM
